{"source": "patent US20160108381A1", "about": "“DNA POLYMERASES AND MUTANTS THEREOF” (LIFE TECHNOLOGIES CORPORATION, priority 2001, published 2016)", "proteins": {"B1": {"name": "Dictyoglomus thermophilum strain Rt46B.1 (Dth) DNA polymerase, SEQ ID NO:22 (Dictyoglomus thermophilum) (protein)", "chain": "MKYLLPTAAAGLLLLAAQPAMAMDIGINSDPKSLWDLFQENTEKESKRKILIIDGSSLIYRVYYALPPLKTKNGELTNALYGFIRILLKAVEDFNPDLVGVAFDRPEPTFRHVIYKEYKAKRPPMKDDLKAQIPWIREFLRLNDIPLLEEPGYEADDIIATIVNKYKDDLKYILSGDLDLLQLVSDKTFLIHPQKGITEFTIYDPKAVKDRFGVEPYKIPLYKVLVGDESDNIPGVNGIGPKKASKILEKISSVDEFKSKIKVLDSDLRELIEKNWNIIERNLELVTLKNIDKDLILKPFEIKRDEKVIDFLKRYELKSILQKLFPDLQEEENIEIKDVEEINFNEVEKEGYFAFKCLGDRAFEGISLSFKEGEGYFISPFDFNNEIRKKIENIISSENVKKIGSYIQRDLHFLNCKIKGDVFDVSLASYLLNPERQNHSLDILIGEYLNKTSFIPQKYAGYLFPLKSILEERIKNEGLEFVLYNIEIPLIPVLYSMEKWGIKVDKEYLKQLSDEFCERIKKLEEEIYELAGTRFNLNSPKQLSEVLFERLKLPSGKKGKTGYSTSSSVLQNLINAHPIVRKILQYRELYKLKSTYVDAIPNLVNPQTGRVHTKFNPTGTATGRISSSEPNLQNIPIKSEEGRKIRRAFVSEDGYFLVSLDYSQIELRIMAHLSQEPKLISAFQKGEDIHRRTASEIFGVPEEEVDDLLRSRAKAVNFGIIYGISSFGLSETVSITPEEAEKFIDSYFKHYPRVKLFIDKTIHEAREKLYVKTLFGRKRYIPEIKSINKQVRNAYERIAINAPIQGTAADIIKLAMIEIYKEIENKNLKSRILLQIHDELILEVPEEEMEFTPLMAKEKMEKVVELSVPLVVEISVGKNLAELK"}, "B2": {"name": "Caldibacillus cellulovorans CompA.2 (CA2) DNA polymerase, SEQ ID NO:16 ([Caldibacillus] cellulovorans) (protein)", "chain": "MKYLLPTAAAGLLLLAAQPAMAMGKLILVDGNSVANRAFYAVRLLSTRGGLHTNAVYGFANMLLKLIEEERPTHFLVAFDAGKATFRHREYEAYKAGRLQTPPELSEQFPYIRELVRAFGVASGELEEYEADDMIGTLAKRAEAEGVDTLVVTGDRDLLQLVSDRVTVALTRKGITETERYDPARIREEYGFDPDRIRDLKGLMGDASDNLPGVPGVGEKTALKLLRQYGSLESVLEHASEIAGKLGENLRAHADAARLSKRLATIDCAVPLQSGWDWLRLGEPDRAALASLLRQLEFKSLLKRLGLDGTSADADVDGVRSSARPADEKRPRAVAVAEEGVDVRCPDRPEEVEEALSRLEAAQSVVVEVTGDNPHDGEVRGVAWWDGHTAYFIPFERLVQSDMRPLADWLADARRPKRTHDSHRAEVALFWHGLAFRGTSFCTHIAAYLLDPTESRHTLADLSRRYGLPPVPEAEDVYGKGAKFKVPDRDTLARYVGRKAALVARLVPLLEADLAACGMRSLFYDLELPLSSELAVMETVGVRVDAAALAAYGEELREAAAKVEREIYELAGTTFNIGSTKQLGEILFDKLGLPVVKKTKTGYSTDADVLEELAPYHPIVEKILHYRQLTKLQSTYIEGLLKEIRPQTGKIHTYYQQTIAATGRLSSQFPNLQNIPIRLEEGRKIRKAFVPSEPGWLMLAADYSQIELRVLAHVSGDERLKEAFRTGMDIHTKTAMDVFGVSEDRVDARMRRQAKAVNFGIIYGISDFGLAQNLNISRKEAAEFIRQYFAVFSGVKAYRERIVEQARRDGYVTTLLGRRRYLPDINASNYNLRSFAERTAMNTPIQGTAADIIKTAMVRLTRRMRDVGLKSRMLLQVHDELVFEVPPDELDAMRELVTDVMESAVPLDVPLKVDVSWGADWYAAK"}, "B3": {"name": "Bacillus caldolyticus EA1.3 (B.EA1) DNA polymerase, SEQ ID NO:20 ([Bacillus] caldolyticus) (protein)", "chain": "MKYLLPTAAAGLLLLAAQPAMAMGLKKKLVLIDGSSVAYRAFFALPLLHNDKGIHTNAVYGFTMMLNKILAEEEPTHMLVAFDAGKTTFRHEAFQEYKGGRQQTPPELSEQFPLLRELLRAYRIPAYELENYEADDIIGTLAARAEQEGFEVKVISGDRDLTQLASPHVTVDITKKGITDIEPYTPEAVREKYGLTPEQIVDLKGLMGDKSDNIPGVPGIGEKTAVKLLKQFGTVENVLASIDEIKGEKLKETLRQHREMALLSKKLAAIRRDAPVELSLDDIVYQGEDREKVVALFKELGFQSFLEKMESPSSEEEKPLAKMAFTLADRVTEEMLADKAALVVEVVEENYHDAPIVGIAVVNEHGRFFLRPETALADPQFVAWLGDETKKKSMFDSKRAAVALKWKGIELCGVSFDLLLAAYLLDPAQGVDDVAAAAKMKQYEAVRSDEAVYGKGAKRAVPDEPVLAEHLVRKAAAIWALERPFLDELRRNEQDRLLVELEQPLSSILAEMEFAGVKVDTKRLEQMGEELAEQLRTVEQRIYELAGQEFNINSPKQLGVILFEKLQLPVLKKTKTGYSTSADVLEKLAPYHEIVENILHYRQLGKLQSTYIEGLLKVVRPDTKKVHTIFNQALTQTGRLSSTEPNLQNIPIRLEEGRKIRQAFVPSESDWLIFAADYSQIELRVLAHIAEDDNLMEAFRRDLDIHTKTAMDIFQVSEDEVTPNMRRQAKAVNFGIVYGISDYGLAQNLNISRKEAAEFIERYFESFPGVKRYMENIVQEAKQKGYVTTLLHRRRYLPDITSRNFNVRSFAERMAMNTPIQGSAADIIKKAMIDLNARLKEERLQARLLLQVHDELILEAPKEEMERLCRLVPEVMEQAVTLRVPLKVDYHYGSTWYDAK"}}, "assay_in_all_cases": "Steady-state kinetics, DNA- and RNA-dependent polymerase activity", "key": {"[1]": {"substrate": "Cc1cn([C@H]2C[C@H](O)[C@@H](COP(=O)(O)OP(=O)(O)OP(=O)(O)O)O2)c(=O)[nH]c1=O", "type": "biochemical, Dictyoglomus thermophilum strain Rt46B.1", "settings": "72 °C", "description": "(§1) Purification of CA2, B.EA1, Rt41A, Dth, Tok13B, Tok7B, and Rt69B DNA polymerase. E. coli cells (BL21SI, Invitrogen Corporation, Carlsbad, Calif.) bearing the plasmid pET26B with the gene for CA2, B.EA1, Rt41A, or Dth DNA polymerase were grown in 2.8-1 Fembach flasks in LB broth containing no salt and 50 μg/ml kanamycin at 37° C. After the culture reached an A590 of 1.2, expression of DNA polymerase was induced with 0.3 M NaCl for 3 hr. Cells were harvested by centrifugation and stored at −70° C. E. coli cells (BL21AI) bearing the plasmid pET14B with the gene for Tok13B, Tok7B, or RT69B DNA polymerase were grown in 2.8-1 Fembach flasks in LB broth containing 50 μg/ml ampicillin at 37° C. After the culture reached an A590 of 1.0, expression of DNA polymerase was induced by the addition of 0.2% arabinose for 3 hr. Cells were harvested by centrifugation and stored at −70° C.\n(§2) Steady-state kinetic measurements."}, "[2]": {"substrate": "Cc1cn([C@H]2C[C@H](O)[C@@H](COP(=O)(O)OP(=O)(O)OP(=O)(O)O)O2)c(=O)[nH]c1=O", "type": "biochemical, Caldibacillus cellulovorans CompA.2", "settings": "55 °C, mean ± SD", "description": "as §1, §2\n(§3) The catalytic rate constant kcat and the Michaelis constant KM were determined for both the DNA-dependent and RNA-dependent polymerase activities for the polypeptides of the invention and these parameters were compared to those of Tne DNA polymerase enzyme and […]™ II reverse transcriptase. […]"}, "[3]": {"substrate": "Nc1nc2c(ncn2[C@H]2C[C@H](O)[C@@H](COP(=O)(O)OP(=O)(O)OP(=O)(O)O)O2)c(=O)[nH]1", "type": "biochemical, Caldibacillus cellulovorans CompA.2", "settings": "other: Table 34, DNA template, 1.5 mM MgCl2, 55 °C per footnote *", "description": "as §1, §2, §3"}, "[4]": {"substrate": "Cc1cn([C@H]2C[C@H](O)[C@@H](COP(=O)(O)OP(=O)(O)OP(=O)(O)O)O2)c(=O)[nH]c1=O", "type": "biochemical, Bacillus caldolyticus EA1.3", "settings": "55 °C, mean ± SD", "description": "as §1, §2"}, "[5]": {"settings": "other: Table 40, (dA)270•(dT)40, dTTP"}, "[6]": {"settings": "other: Table 40, (rA)250•(dT)30, dTTP"}}, "note": "Marks after values point to notes of the source that are not given here."}
{"protein": "B1", "values": [{"measurement": "kcat", "setting": "[1]; other: Table 40, (dA)270•(dT)40, dTTP, mean ± SD", "value": "39 ± 15", "unit": "s⁻¹"}, {"measurement": "kcat", "setting": "[1]; other: Table 40, (rA)250•(dT)40, dTTP", "value": "< 1", "unit": "s⁻¹"}]}
{"protein": "B2", "values": [{"measurement": "kcat", "setting": "[2]; [5]", "value": "82 ± 9", "unit": "s⁻¹"}, {"measurement": "kcat", "setting": "[2]; [6]", "value": "48 ± 9", "unit": "s⁻¹"}, {"measurement": "kcat", "setting": "[3]", "value": "200* s−1"}]}
{"protein": "B3", "values": [{"measurement": "kcat", "setting": "[4]; [5]", "value": "73 ± 16", "unit": "s⁻¹"}, {"measurement": "kcat", "setting": "[4]; [6]", "value": "43 ± 7", "unit": "s⁻¹"}]}
